This is an account of results in publication PMC9917425 (2023).

Sequences and labels used below:
B1: α-dystroglycan lacking N-terminal domain (M-α-DGN KO) 317-653 (protein)
chain: TPVTAIGPPTTAIQEPPSRIVPTPTSPAIAPPTETMAPPVRDPVPGKPTVTIRTRGAIIQTPTLGPIQPTRVSEAGTTVPGQIRPTLTIPGYVEPTAVITPPTTTTKKPRVSTPKPATPSTDSSTTTTRRPTKKPRTPRPVPRVTTKAPITRLETASPPTRIRTTTSGVPRGGEPNQRPELKNHIDRVDAWVGTYFEVKIPSDTFYDNEDTTTDKLKLTLKLREQQLVGEKSWVQFNSNSQLMYGLPDSSHVGKHEYFMHATDKGGLSAVDAFEIHVHKRPQGDKAPARFKARLAGDPAPVVNDIHKKIALVKKLAFAFGDRNCSSITLQNITRGSI
modifications: short non-elongated matriglycan O-glycosylation
B2: α-dystroglycan (α-DG) (protein)
chain: HWPSEPSEAVRDWKNQLEASMHSVLSDFQEAVPTVVGIPDGTAVVGRSFRVSIPTDLIASSGEIIKVSAAGKEALPSWLHWDPHSHILEGLPLDTDKGVHYISVSAARLGANGSHVPQTSSVFSIEVYPEDHNEPQSVRAASSDPGEVVPSACAADEPVTVLMVILDADLTKMTPKQRIDLLNRMQSFSEVELHNMKLVPVVNNRLFDMSAFMAGPGNAKKVVENGALLSWKLGCSLNQNSVPDIRGVETPAREGAMSAQLGYPVVGWHIANKKPTLPKRLRRQIHATPTPVTAIGPPTTAIQEPPSRIVPTPTSPAIAPPTETMAPPVRDPVPGKPTVTIRTRGAIIQTPTLGPIQPTRVSEAGTTVPGQIRPTLTIPGYVEPTAVITPPTTTTKKPRVSTPKPATPSTDSSTTTTRRPTKKPRTPRPVPRVTTKAPITRLETASPPTRIRTTTSGVPRGGEPNQRPELKNHIDRVDAWVGTYFEVKIPSDTFYDNEDTTTDKLKLTLKLREQQLVGEKSWVQFNSNSQLMYGLPDSSHVGKHEYFMHATDKGGLSAVDAFEIHVHKRPQGDKAPARFKARLAGDPAPVVNDIHKKIALVKKLAFAFGDRNCSSITLQNITRG
B3: α-dystroglycan (α-DG) (protein)
chain: B2 chain with M163T
modifications: matriglycan O-glycosylation (full-length)

Substitutions are numbered along the chain they refer to.

This assay concerns the target laminin-111 (Mus musculus, UniProt P19137). The assay can be described thus: solid-phase binding assay.
One may read the Kd as the free concentration of one partner at which half of the binding sites on the other are occupied at equilibrium, for simple one-to-one binding. Regarding B1, binding was put at a Kd of 2.32 nM. As to B2, the Kd came out at 1.9 nM. The Kd values of the last two molecules are within 1.5-fold of each other. With B3 the figure was 0.966 nM.
